The text below walks through data of article PMC4730846 (Science Advances, 2015).

This experiment addresses GroEL (Escherichia coli, UniProt P0A6F5 2-548). The experiment in a line: proteinase K protection assay.

Sequence of GroEL (P0A6F5 2-548): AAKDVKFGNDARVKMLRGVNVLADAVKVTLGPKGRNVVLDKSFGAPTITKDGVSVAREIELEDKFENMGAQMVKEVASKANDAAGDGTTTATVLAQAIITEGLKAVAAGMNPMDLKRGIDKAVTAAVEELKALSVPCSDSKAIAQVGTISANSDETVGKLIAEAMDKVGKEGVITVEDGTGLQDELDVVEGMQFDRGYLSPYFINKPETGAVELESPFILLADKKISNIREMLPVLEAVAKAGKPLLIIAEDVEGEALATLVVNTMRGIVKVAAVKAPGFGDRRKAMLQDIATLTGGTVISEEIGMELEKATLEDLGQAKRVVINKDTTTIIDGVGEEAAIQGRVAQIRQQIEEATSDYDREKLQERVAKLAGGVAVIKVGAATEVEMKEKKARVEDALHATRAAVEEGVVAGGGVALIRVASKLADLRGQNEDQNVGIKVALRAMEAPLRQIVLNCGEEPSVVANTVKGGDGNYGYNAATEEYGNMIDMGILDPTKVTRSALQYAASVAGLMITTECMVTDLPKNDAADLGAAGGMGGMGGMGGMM

B1: GroES (natural protein)
chain: MNIRPLHDRVIVKRKEVETKSAGGIVLTGSAAAKSTRGEVLAVGNGRILENGEVKPLDVKVGDIVIFNDGYGVKSEKIDNEEVLIMSESDILAIVEA
In the case of B1, the binding result is reported as “binds”.
